Patent US20060051842A1 (AMRAD OPERATIONS, published 2006)
Values belong to the binder of their own block, whether it stands above or below them.

What was measured:
[1] = molecular target: T1, Nr1 (murine IL-11 receptor α-chain) expressed in Ba/F3 cells (murine, UniProt Q64385 24-432); assay: Scatchard analysis of 125I-IL-11 saturation binding to Ba/F3 cells expressing Nr1
T1 construct: also called Ba/F3 cells expressing Nr1; Ba/F3 Nr1
T1 sequence: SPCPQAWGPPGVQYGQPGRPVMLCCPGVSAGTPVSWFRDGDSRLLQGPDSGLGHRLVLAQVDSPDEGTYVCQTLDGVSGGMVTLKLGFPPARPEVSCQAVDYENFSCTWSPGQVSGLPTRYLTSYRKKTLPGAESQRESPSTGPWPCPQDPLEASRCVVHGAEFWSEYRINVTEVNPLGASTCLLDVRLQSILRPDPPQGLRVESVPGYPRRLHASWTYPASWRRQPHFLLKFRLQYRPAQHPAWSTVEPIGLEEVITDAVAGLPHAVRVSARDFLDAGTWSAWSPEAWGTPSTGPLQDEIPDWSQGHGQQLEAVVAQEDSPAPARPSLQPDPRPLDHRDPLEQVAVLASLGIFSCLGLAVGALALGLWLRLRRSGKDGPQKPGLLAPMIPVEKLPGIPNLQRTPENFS
Description: FIGS. 4A-4D are graphical representations of scatchard analyses of saturation isotherms of IL-11 binding to various cell lines; (4A) parental Ba/F3 cells (●), Ba/F3 cells expressing Nr1 (◯), Ba/F3 cells expressing Nr1 and the LIF receptor (▪), (4B) Ba/F3 cells expressing the LIF receptor and gp130 (▪), Ba/F3 cells expressing Nr1 and gp130 (●), Ba/F3 cells expressing the Nr1, LIF receptor and gp130 (◯), (4C) parental M1 cells (▪), M1 cells expressing Nr1 (◯), and (4D) 3T3-L1 cells (●) were incubated with various concentrations of labelled IL-11 in the presence of absence of a 10-100-fold excess of unlabelled IL-11. After 18 hours incubation on ice, bound and free IL-11 were separated by centrifugation through foetal calf serum. Bound and free ¹²⁵I-IL-11 was quantitated in a γ-counter and the data was depicted as a Scatchard transformation. In each case data were normalised for cell number and shown as binding to 10⁶ cells.

[2] = molecular target: T2, Nr1, gp130 and the LIF receptor co-expressed in Ba/F3 cells (murine; mouse; human, UniProt Q00560 23-917; P42702 45-1097); assay: competition with 125I-IL-11 on Ba/F3 cells expressing Nr1, gp130 and the LIF receptor
T2 construct: whole, on cells; also called Ba/F3 Nr1/gp130/LIF receptor
Protocol: (§1) After 18 hours incubation on ice, bound and free IL-11 were separated by centrifugation through foetal calf serum. Bound and free ¹²⁵I-IL-11 were quantitated in a γ-counter and the amount of binding was expressed as a percentage of that observed in the absence of competitor.

[3] = molecular target: T1, Nr1 (murine IL-11 receptor α-chain) …; assay: binding of 125I-LIF to transfected Ba/F3 cells
[4] = molecular target: T3, LIF receptor and gp130 expressed by parental M1 cells (mouse; murine, UniProt P42703 44-1092; Q00560 23-917); assay: binding of 125I-LIF to parental M1 cells
T3 construct: whole, on cells; Untransfected cells

[5] = molecular target: T3, LIF receptor and gp130 expressed by …; assay: binding of 125I-labelled human IL-11 to cells
[6] = molecular target: T3, LIF receptor and gp130 expressed by …; assay: binding of 125I-OSM to parental M1 cells
[7] = molecular target: T4, Nr1 and gp130 co-expressed in Ba/F3 cells (murine; mouse, UniProt Q00560 23-917); assay: competition with 125I-IL-11 on Ba/F3 cells expressing Nr1 and gp130; competitor of labelled IL-11
T4 construct: whole, on cells; also called Ba/F3 Nr1/gp130; Ba/F3 cells expressing the murine IL-11rα and murine gp130
T4 sequence 1: T1 sequence
T4 sequence 2: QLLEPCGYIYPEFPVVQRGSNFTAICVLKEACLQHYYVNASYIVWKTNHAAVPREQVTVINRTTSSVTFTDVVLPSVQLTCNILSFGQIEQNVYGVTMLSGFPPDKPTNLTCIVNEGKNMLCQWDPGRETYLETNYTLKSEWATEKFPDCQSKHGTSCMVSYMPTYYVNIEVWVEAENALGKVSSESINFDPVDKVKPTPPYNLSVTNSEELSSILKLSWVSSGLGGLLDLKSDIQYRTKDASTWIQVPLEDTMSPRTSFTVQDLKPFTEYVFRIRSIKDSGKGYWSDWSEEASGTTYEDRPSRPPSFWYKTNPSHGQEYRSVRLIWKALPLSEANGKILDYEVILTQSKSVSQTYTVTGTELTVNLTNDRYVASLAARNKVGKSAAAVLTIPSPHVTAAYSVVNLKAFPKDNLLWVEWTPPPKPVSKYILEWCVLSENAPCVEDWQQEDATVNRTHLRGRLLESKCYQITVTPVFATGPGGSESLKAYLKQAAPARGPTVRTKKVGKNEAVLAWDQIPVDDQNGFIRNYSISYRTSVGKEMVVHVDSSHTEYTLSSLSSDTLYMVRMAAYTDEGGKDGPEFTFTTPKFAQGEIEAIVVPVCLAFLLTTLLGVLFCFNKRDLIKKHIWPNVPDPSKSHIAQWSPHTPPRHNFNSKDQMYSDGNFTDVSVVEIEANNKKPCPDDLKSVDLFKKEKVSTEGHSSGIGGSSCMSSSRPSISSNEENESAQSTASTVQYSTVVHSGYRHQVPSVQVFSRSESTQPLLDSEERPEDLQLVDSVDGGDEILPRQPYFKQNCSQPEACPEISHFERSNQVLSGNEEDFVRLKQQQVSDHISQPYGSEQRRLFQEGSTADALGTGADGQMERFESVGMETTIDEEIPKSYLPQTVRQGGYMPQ
Protocol: as §1

[8] = molecular target: T1, Nr1 (murine IL-11 receptor α-chain) …; assay: binding of 125I-OSM to transfected Ba/F3 cells

T3 sequence (P42703 44-1092, one chain of several): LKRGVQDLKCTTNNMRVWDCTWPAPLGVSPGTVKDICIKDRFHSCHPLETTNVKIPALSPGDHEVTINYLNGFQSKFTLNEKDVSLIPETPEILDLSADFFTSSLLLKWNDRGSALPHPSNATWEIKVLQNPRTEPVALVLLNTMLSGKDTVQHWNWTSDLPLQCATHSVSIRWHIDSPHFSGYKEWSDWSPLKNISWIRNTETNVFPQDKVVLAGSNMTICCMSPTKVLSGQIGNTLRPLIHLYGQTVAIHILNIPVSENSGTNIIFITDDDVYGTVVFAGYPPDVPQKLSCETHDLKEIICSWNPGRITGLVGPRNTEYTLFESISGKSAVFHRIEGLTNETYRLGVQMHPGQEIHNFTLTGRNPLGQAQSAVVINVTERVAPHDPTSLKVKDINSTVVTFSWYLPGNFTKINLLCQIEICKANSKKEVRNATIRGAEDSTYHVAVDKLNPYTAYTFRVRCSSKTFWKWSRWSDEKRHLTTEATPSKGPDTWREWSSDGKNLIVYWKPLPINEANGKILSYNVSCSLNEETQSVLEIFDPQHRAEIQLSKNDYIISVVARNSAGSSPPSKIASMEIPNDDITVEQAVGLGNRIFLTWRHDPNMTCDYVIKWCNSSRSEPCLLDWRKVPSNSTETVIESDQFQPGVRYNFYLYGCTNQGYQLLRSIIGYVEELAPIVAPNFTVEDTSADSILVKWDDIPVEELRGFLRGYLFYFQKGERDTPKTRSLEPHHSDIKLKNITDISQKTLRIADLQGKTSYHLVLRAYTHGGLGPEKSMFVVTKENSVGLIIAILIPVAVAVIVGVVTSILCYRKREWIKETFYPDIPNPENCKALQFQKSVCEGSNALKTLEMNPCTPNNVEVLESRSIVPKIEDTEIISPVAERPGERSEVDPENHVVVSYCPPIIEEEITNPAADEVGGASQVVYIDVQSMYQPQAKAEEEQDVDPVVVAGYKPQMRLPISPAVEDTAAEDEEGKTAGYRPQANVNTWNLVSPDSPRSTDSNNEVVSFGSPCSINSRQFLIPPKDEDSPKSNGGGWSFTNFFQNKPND
T2 sequence (P42702 45-1097, one chain of several): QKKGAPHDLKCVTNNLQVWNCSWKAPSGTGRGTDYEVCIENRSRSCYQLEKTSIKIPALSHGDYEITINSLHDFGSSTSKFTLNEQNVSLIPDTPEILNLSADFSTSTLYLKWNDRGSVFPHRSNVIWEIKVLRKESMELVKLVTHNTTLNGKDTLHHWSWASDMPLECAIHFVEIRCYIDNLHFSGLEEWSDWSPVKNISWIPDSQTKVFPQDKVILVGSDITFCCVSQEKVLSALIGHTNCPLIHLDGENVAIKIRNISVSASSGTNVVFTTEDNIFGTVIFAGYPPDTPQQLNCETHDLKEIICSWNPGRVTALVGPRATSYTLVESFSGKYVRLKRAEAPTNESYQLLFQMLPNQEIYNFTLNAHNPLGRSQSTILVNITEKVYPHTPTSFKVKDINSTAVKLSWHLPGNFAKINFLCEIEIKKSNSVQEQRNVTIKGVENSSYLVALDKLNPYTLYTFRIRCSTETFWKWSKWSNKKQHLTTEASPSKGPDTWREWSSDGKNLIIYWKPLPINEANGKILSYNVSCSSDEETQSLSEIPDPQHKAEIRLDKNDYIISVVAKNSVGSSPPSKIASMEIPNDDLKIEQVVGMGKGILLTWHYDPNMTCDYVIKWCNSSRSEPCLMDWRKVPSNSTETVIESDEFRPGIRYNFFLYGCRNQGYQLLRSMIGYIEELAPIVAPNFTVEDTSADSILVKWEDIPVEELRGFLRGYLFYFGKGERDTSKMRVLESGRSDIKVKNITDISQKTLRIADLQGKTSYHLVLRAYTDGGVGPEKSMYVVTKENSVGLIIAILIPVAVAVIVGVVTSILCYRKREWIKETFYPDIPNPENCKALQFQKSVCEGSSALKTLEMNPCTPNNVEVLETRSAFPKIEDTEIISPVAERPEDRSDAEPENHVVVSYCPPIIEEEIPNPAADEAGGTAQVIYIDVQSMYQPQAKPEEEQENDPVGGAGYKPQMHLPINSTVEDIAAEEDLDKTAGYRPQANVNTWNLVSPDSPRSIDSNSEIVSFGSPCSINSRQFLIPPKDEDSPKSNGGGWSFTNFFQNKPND

binding result [5]: no binding
B3: N-terminal flag human IL-11 (expressed in COS-M6 cells, used in ligand binding studies) (ligand)
chain: DYKDDDDKPGPPPGPPRVSPDPRAELDSTVLLTRSLLADTRQLAAQLRDKFPADGDHNLDSLPTLAMSAGALGALQLPGVLTRLRADLLSYLRHVQWLRRAGGSSLKTLEPELGTLQARLDRLLRRLQLLMSRLALPQPPPDPPAPPLAPPSSAWGGIRAAHAILGGLHLTLDWAVRGLLLLKTRL
modifications: radio-iodinated (125I) with Bolton-Hunter reagent
notes: mature; also called radio-labelled human IL-11

binding result [6]: binds
binding result [7]: binds
binding result [2]: binds
binding result [8]: no binding
B4: human OSM (produced using the pGEX system) (ligand, UniProt P13725 26-221, looked up)
chain: AAIGSCSKEYRVLLGQLQKQTDLMQDTSRLLDPYIRIQGLDVPKLREHCRERPGAFPSEETLRGLGRRGFLQTLNATLGCVLHRLADLEQRLPKAQDLERSGLNIEDLEKLQMARPNILGLRNNIYCMAQLLDNSDTAEPTKAGRGASQPPTPTPASDAFQRKLEGCRFLHGYHRFMHSVGRVFSKWGESPNRSRR
modifications: 125I-labelled where used as labelled ligand

More lines, now with the values behind:

B1: IL-11 (purchased from PeproTech; used in Examples 7, 8, 12 and 13) (ligand)
chain: PGPPPGPPRVSPDPRAELDSTVLLTRSLLADTRQLAAQLRDKFPADGDHNLDSLPTLAMSAGALGALQLPGVLTRLRADLLSYLRHVQWLRRAGGSSLKTLEPELGTLQARLDRLLRRLQLLMSRLALPQPPPDPPAPPLAPPSSAWGGIRAAHAILGGLHLTLDWAVRGLLLLKTRL
modifications: The tracer form (125I-IL-11) was radio-iodinated with monoiodinated Bolton-Hunter reagent on amino groups. The positions are not stated and the letters are unchanged.
notes: Species ambiguous: 'Murine' may apply to IL-3 only; also called labelled IL-11
Kd [1]: ~0.01 nM

B2: human LIF (produced using the pGEX system) (ligand)
chain: not shown
modifications: 125I-labelled where used as labelled ligand
binding result [2]: binds
binding result [3]: no binding
binding result [4]: binds
